In article PMC4432310, “Different Ligands of the TRPV3 Cation Channel Cause Distinct Conformational Changes as Revealed by Intrinsic Tryptophan Fluorescence Quenching*” (The Journal of Biological Chemistry, 2015):

Experiments:
[1] = target: the molecule itself; assay: SEC; fluorescence detection SEC (FSEC) of detergent-solubilized crude Sf9 membranes on Superose 6 10/300 GL; buffer A (200 mM NaCl, 50 mM Tris, pH 7.5) with DM, DDM or LDAO at ~1.5 x CMC; oligomer judged from the retention volume
[2] = target: the molecule itself; assay: SEC; UV detection SEC of hTRPV3 eluted from the GFP trap, Superose 6 10/300 GL; buffer B (100 mM NaCl, 10 mM Tris, pH 7.5) with 0.03% DDM and 0.1% CHAPS

B1: human TRPV3 fused to C-terminal GFP and His8 tag (natural protein, UniProt Q8NET8 1-790, looked up)
chain: MKAHPKEMVPLMGKRVAAPSGNPAILPEKRPAEITPTKKSAHFFLEIEGFEPNPTVAKTSPPVFSKPMDSNIRQCISGNCDDMDSPQSPQDDVTETPSNPNSPSAQLAKEEQRRKKRRLKKRIFAAVSEGCVEELVELLVELQELCRRRHDEDVPDFLMHKLTASDTGKTCLMKALLNINPNTKEIVRILLAFAEENDILGRFINAEYTEEAYEGQTALNIAIERRQGDIAALLIAAGADVNAHAKGAFFNPKYQHEGFYFGETPLALAACTNQPEIVQLLMEHEQTDITSRDSRGNNILHALVTVAEDFKTQNDFVKRMYDMILLRSGNWELETTRNNDGLTPLQLAAKMGKAEILKYILSREIKEKRLRSLSRKFTDWAYGPVSSSLYDLTNVDTTTDNSVLEITVYNTNIDNRHEMLTLEPLHTLLHMKWKKFAKHMFFLSFCFYFFYNITLTLVSYYRPREEEAIPHPLALTHKMGWLQLLGRMFVLIWAMCISVKEGIAIFLLRPSDLQSILSDAWFHFVFFIQAVLVILSVFLYLFAYKEYLACLVLAMALGWANMLYYTRGFQSMGMYSVMIQKVILHDVLKFLFVYIVFLLGFGVALASLIEKCPKDNKDCSSYGSFSDAVLELFKLTIGLGDLNIQQNSKYPILFLFLLITYVILTFVLLLNMLIALMGETVENVSKESERIWRLQRARTILEFEKMLPEWLRSRFRMGELCKVAEDDFRLCLRINEVKWTEWKTHVSFLNEDPGPVRRTDFNKIQDSSRNNSKTTLNAFEEVEEFPETSV
notes: human TRPV3 (transient receptor potential vanilloid 3), full-length; theoretical mass of the monomer printed as 90.6 kDa; A PreScission cleavage site lies between TRPV3 and GFP-His8; The fusion is uncleaved in the FSEC runs; also called hTRPV3-GFP; hTRPV3; source: Sf9 insect cells (baculovirus), detergent-solubilized crude membranes, not purified; not shown: GFP, C-terminal, kept
[1]
  stoichiometry N: 4

B2: human TRPV3, detergent-purified, GFP-His tag cleaved off (natural protein, UniProt Q8NET8 1-790, looked up)
chain: B1 chain
notes: human TRPV3 (transient receptor potential vanilloid 3), full-length; theoretical mass of the monomer printed as 90.6 kDa; also called hTRPV3; detergent-purified hTRPV3; source: Sf9 insect cells (baculovirus), purified (GFP trap, PreScission cleavage, SEC) in DDM and CHAPS; not shown: GFP, C-terminal, cleaved; His8, C-terminal, cleaved
[2]
  stoichiometry N: 4
